Data taken from patent CN117024595A (JIANGXI LECHENG XINSHENG BIOTECHNOLOGY RES CO LTD, dated 2023).

Biological target: T1, 带有His组氨酸标签蛋白的人ST2重组蛋白 (human, UniProt Q01638 19-328, limits assumed)
T1 construct: Captured on a His-capture BLI sensor; also called His-tagged recombinant human ST2 protein; not shown: His tag
T1 sequence (looked up): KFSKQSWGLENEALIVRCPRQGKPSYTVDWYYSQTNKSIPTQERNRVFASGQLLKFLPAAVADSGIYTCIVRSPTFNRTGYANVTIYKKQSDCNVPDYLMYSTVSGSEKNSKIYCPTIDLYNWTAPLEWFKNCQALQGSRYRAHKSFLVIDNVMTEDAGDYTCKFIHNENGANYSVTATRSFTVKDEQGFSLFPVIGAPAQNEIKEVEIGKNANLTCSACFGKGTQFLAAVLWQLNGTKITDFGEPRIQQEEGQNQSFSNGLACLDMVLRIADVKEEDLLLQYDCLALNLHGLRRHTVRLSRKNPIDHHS
Test: BLI, His-tagged human ST2 captured on HIS sensor, antibody in solution at several concentrations

B1: 检测抗体D12(抗人ST2的单克隆抗体) (antibody, V domains shown)
VH: QVTLKESGPGILQPSQTLSLTCSFSGFSLSTSGMGVGWIRQPSGKGLEWLAHIWWDDVKQYNPALKSRLTISKDTSSSQVFLKIASVDTADIATYYCARLGGNWDYFDYWGQGTTLTVSS
VL: DIVLTQSPASLVVSLGQRATISCRASESVDSCGVSFMKWLQQKPGQPPKLLIYVASKVESGVPARFGGSGSGTDFSLNIHPVEEDDFAVYFCQQSRKVPWTFGGGTKLEIK
notes: Mouse hybridoma monoclonal antibody purified from ascites on Protein G; HRP-labelled in one orientation of the sandwich ELISA; coupled to fluorescent microspheres in the strip; also called detection antibody
How did the Kd turn out when B1 was run?
Its Kd is 0.02 nM.
